Experimental data taken from patent EP4631959A2, “NOVEL MINIGASTRIN-DERIVED CHOLECYSTOKININ 2 RECEPTOR BINDING MOLECULES FOR IMAGING AND TARGETED RADIOTHERAPY” (priority 2022, dated 2024).
Like-named read-outs stand apart in the source and are kept apart here. Starred links: 1 amine or outer side, 2 acyl side, 3 side chain; linkers in the order of their positions; H or OH if unused. Non-standard residues stand in square brackets, D forms with d. Residues, ends and D or L forms follow the SMILES beside them. *: point of attachment. DOTA = O=C(O)CN1CCN(CC(=O)O)CCN(CC(=O)*)CCN(CC(=O)O)CC1; d(γGlu) = O=C(O)[C@@H](CCC(=O)[*:2])N[*:1]; 1Nal = N[C@@H](Cc1cccc2ccccc12)C(=O)O; NMeNle = CCCC[C@H](NC)C(=O)O; PEG4 = NCCOCCOCCOCCOCCC(=O)O

Tests used:
[1] = Biodistribution in AR4-2J tumor-bearing CB17-SCID mice; assay type: in vivo; settings: female, CB17-SCID, mouse, in vivo, iv, 100 pmol, total radioactivity
Method: (§1) All animal experiments were conducted in accordance with general animal welfare regulations in Germany (German animal protection act, in the edition of the announcement, dated May 18th, 2006, as amended by Article 280 of June 19th 2020, approval no. ROB-55.2-1-2532.Vet_02-18-109 by the General Administration of Upper Bavaria) and the institutional guidelines for the care and use of animals. CB17-SCID mice of both genders (Charles River Laboratories International Inc., Sulzfeld, Germany) were let to acclimate at the in-house animal facility at least for one week before inoculation was performed. To establish tumor xenografts, AR4-2J cells (5.0 × 10^6 cells per 200 µL) were suspended in a 1/1 mixture (v/v) of Dulbecco modified Eagle medium / Nutrition Mixture F-12 with Glutamax-I (1/1) and Cultrex® Basement Membrane Matrix Type 3 (Trevigen, Gaithersburg, MD, USA) and inoculated subcutaneously onto the right shoulder of 6-10 weeks old CB17-SCID mice (Charles River, Sulzfeld, Germany). Mice were used for experiments when tumors had grown to a volume of 150-300 mm^3 (1-2 weeks after inoculation). Exclusion criteria for animals from an experiment were either a weight loss higher than 20%, a tumor size above 1,500 mm^3, an ulceration of the tumor, a respiratory distress or a change of behavior. None of these criteria applied to any animal from the experiment. Neither randomization nor blinding was applied in the allocation of the experiments. Health status is SPF according to FELASA.
(§2) Approximately 1-5 MBq (100 pmol) of the radiolabeled minigastrin analogues were injected into the tail vein of AR4-2J tumor-bearing female CB17-SCID mice and sacrificed at 1 to 24 h post injection (n = 4-5). Selected organs were removed, weighted and measured in a γ-counter.

[2] = molecular target: T1, Human serum albumin (HSA) (Homo sapiens, UniProt P02768); test: Determination of HSA binding on a Chiralpak HSA column; assay type: in vitro ADME
T1 construct: purchased Daicel, Tokyo, Japan H13H-2433
Outline: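 Retention on an HSA column with a 50 mM NH4OAc (pH 6.9)/isopropanol gradient at 0.5 mL/min, rt; samples run at 0.5 mg/mL in A/B (1/1). Binding derived by non-linear regression against nine reference compounds spanning 13 to 99% HSA binding.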

[3] = tested on: CCK-2R; test: Competition studies in AR4-2J tumor-bearing CB17-SCID mice; assay type: in vivo; settings: co-administration of excess unlabeled competitor (40 nmol), 24 h p.i.
Method: For competition studies, the radiolabeled compound (approx. 1-5 MBq, 100 pmol) was co-injected with [^natLu]Lu-DOTA-MGS5 (40 nmol) into the tail vein of AR4-2J tumor-bearing CB17-SCID mice and sacrificed at 1 to 24 h post injection (n = 2). Selected organs were removed, weighted and measured in a γ-counter.

[4] = molecular target: T2, CCK-2R (Rattus norvegicus, UniProt P30553); test: Determination of IC50: CCK-2R affinity on AR4-2J cells, competition with [^177Lu]Lu-DOTA-PP-F11N; assay type: binding; settings: AR4-2J cells
T2 construct: The CCK-2R expressing rat pancreatic tumor cells AR4-2J; host or cells: AR4-2J rat pancreatic tumor cells
T2 sequence (P30553 1-452): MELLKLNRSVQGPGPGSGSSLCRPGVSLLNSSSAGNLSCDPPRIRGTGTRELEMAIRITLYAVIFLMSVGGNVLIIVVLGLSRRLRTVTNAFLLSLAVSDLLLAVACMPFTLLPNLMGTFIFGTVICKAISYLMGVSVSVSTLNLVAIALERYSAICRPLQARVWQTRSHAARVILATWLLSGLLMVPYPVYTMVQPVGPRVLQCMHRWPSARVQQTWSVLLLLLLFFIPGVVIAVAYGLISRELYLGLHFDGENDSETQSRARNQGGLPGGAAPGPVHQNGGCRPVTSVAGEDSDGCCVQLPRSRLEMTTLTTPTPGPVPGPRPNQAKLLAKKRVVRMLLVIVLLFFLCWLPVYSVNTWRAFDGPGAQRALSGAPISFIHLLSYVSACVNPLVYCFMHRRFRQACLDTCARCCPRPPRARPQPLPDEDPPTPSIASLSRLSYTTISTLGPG
Outline: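 Competitive displacement of 0.3 pmol/well [177Lu]Lu-DOTA-PP-F11N by compounds (10^-10 to 10^-4 M) on AR4-2J cells in BSA-supplemented medium, 3 h at 37 °C. Free label was collected from medium plus PBS rinse, and cell-bound label was recovered with 1 M NaOH, both measured by γ-counter. Each IC50 was determined twice, in triplicate.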

[5] = n-Octanol-PBS distribution coefficient (logD7.4); assay type: physicochemical; settings: for logD7.4 (n ≥ 5), ^67Ga-labeled: pH = 7.4, ^67Ga-labeled; for logD7.4 (n ≥ 5), ^177Lu-labeled: pH = 7.4, ^177Lu-labeled
Method: Approximately 1 MBq of the labeled tracer was dissolved in 1 mL of a 1/1 mixture (v/v) of phosphate buffered saline (PBS, pH = 7.4) and n-octanol in an Eppendorf tube (1.5 mL). After vigorous mixing of the suspension for 3 min at rt, the vial was centrifuged at 9,000 rpm for 5 min (Biofuge 15, Heraeus Sepatech, Osterode, Germany) and 200 µL aliquots of both layers were measured in a γ-counter. The experiment was repeated at least five times.

[6] = tested on: AR4-2J tumor-bearing CB17-SCID mice; test: Biodistribution in AR4-2J tumor-bearing CB17-SCID mice; assay type: in vivo; settings: 24 h p.i.
Method: as §1, §2

[7] = ^natLu-labeled, read-out: IC50 [nM] (n = 3), ^natLu-labeled

T1 sequence (P02768 25-609): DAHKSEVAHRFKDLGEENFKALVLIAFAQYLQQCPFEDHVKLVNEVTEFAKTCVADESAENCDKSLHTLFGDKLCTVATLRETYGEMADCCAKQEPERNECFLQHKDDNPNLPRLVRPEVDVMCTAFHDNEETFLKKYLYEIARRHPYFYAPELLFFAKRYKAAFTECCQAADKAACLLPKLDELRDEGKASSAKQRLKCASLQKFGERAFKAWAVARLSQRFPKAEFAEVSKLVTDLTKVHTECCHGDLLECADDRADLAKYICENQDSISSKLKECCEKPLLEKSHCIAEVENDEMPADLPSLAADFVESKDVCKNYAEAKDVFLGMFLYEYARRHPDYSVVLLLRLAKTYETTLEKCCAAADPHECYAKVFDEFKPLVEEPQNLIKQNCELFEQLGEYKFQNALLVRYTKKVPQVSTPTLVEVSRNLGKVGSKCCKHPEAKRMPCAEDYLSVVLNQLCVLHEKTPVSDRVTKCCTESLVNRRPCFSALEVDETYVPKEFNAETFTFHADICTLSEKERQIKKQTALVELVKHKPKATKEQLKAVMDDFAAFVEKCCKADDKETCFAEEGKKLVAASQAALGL

SMILES | tissue to tissue ratio at 24 h [1] | tissue uptake at 24 h [1] [%ID/g] | HSA binding [%] [2] [%] | HSA binding [%], ^natCu-labeled [2] [%] | HSA binding [%], ^natGa-labeled [2] [%] | HSA binding [%], ^natLu-labeled [2] [%] | activity levels in stomach and tumor in competition studies (CCK-2R specificity) [3] | IC50 ([4]; ^natCu-labeled, read-out: IC50 [nM] (n = 3), ^natCu-labeled) | IC50 ([4]; ^natGa-labeled, read-out: IC50 [nM] (n = 3), ^natGa-labeled) | IC50 [4, 7] [nM] | logD7.4 (n ≥ 5), ^64Cu-labeled ([5]; pH = 7.4, ^64Cu-labeled) | logD7.4 (n ≥ 5), ^67Ga-labeled [5] | logD7.4 (n ≥ 5), ^67Ga-labeled ([5]; listed as [^67Ga]Ga-DOTA-CCK-66) | logD7.4 (n ≥ 5), ^177Lu-labeled [5] | tissue uptake at 24 h ([1]; 24 h p.i., read-out: activity levels in the tumor) [%ID/g] | activity levels in the tumor, fold higher than those of [^177Lu]Lu-DOTA-PP-F11N [6]
CCCC[C@@H](C(=O)N[C@@H](CC(=O)O)C(=O)N[C@@H](Cc1cccc2ccccc12)C(N)=O)N(C)C(=O)[C@H](Cc1c[nH]c2ccccc12)NC(=O)CCOCCOCCOCCOCCNC(=O)CC[C@@H](NC(=O)CN1CCN(CC(=O)O)CCN(CC(=O)O)CCN(CC(=O)O)CC1)C(=O)O [DOTA-CCK-66, DOTA-γ-glu-(PEG)3-Trp-(N-Me)Nle-Asp-1-Nal-NH2] ({DOTA-d(γGlu)-PEG4}-W[NMeNle]D[1Nal]-NH2) | 2010 ± 469 | 8.56 ± 1.08 | 61.5 | 61.5 | 53.8 | 69.1 | significantly decreased activity levels in both stomach and tumor | 4.2 ± 0.5 | 5 ± 0.5 | 5.1 ± 0.5 | −2.64 ± 0.04 | −3.01 ± 0.07 | < -3 | −2.60 ± 0.07 |  | 
CCCC[C@H](NC(=O)[C@H](Cc1c[nH]c2ccccc12)NC(=O)CNC(=O)[C@H](Cc1ccc(O)cc1)NC(=O)[C@H](C)NC(=O)CC[C@@H](NC(=O)CC[C@@H](NC(=O)CC[C@@H](NC(=O)CC[C@@H](NC(=O)CC[C@@H](NC(=O)CC[C@@H](NC(=O)CC[C@@H](NC(=O)CC[C@@H](NC(=O)[C@@H](CNC(=O)c1ccc([Si](F)(C(C)(C)C)C(C)(C)C)cc1)NC(=O)CN1CCN(CC(=O)O)CCN(CC(=O)O)CCN(CC(=O)O)CC1)C(=O)O)C(=O)O)C(=O)O)C(=O)O)C(=O)O)C(=O)O)C(=O)O)C(=O)O)C(=O)N[C@@H](CC(=O)O)C(=O)N[C@@H](Cc1ccccc1)C(N)=O [DOTA-MG-SiFA-23, DOTA-dap(SiFA)-(γ-glu)8- Ala-Tyr-Gly-Trp-Nle-Asp-Phe-NH2] |  |  |  |  |  |  | specific |  |  | 4.71 ± 0.62 |  |  |  | −2.69 ± 0.06 | > 25 | more than 8 fold
